Measurements: patent publication US11357816B2, “Ligand controling interaction between gags with their effector molecules and use thereof” (CENTRE NATIONAL DE LA RECHERCHE SCIENTIFIQUE (CNRS), priority 2018, dated 2022)

Molecular target: T1, Sema-3A (Mus musculus, UniProt O08665)
T1 construct: Visual cortex of adult mice were dissected and lysed in homogenization buffer; from tissue; host or cells: adult mouse visual cortex
T1 sequence (O08665 21-772): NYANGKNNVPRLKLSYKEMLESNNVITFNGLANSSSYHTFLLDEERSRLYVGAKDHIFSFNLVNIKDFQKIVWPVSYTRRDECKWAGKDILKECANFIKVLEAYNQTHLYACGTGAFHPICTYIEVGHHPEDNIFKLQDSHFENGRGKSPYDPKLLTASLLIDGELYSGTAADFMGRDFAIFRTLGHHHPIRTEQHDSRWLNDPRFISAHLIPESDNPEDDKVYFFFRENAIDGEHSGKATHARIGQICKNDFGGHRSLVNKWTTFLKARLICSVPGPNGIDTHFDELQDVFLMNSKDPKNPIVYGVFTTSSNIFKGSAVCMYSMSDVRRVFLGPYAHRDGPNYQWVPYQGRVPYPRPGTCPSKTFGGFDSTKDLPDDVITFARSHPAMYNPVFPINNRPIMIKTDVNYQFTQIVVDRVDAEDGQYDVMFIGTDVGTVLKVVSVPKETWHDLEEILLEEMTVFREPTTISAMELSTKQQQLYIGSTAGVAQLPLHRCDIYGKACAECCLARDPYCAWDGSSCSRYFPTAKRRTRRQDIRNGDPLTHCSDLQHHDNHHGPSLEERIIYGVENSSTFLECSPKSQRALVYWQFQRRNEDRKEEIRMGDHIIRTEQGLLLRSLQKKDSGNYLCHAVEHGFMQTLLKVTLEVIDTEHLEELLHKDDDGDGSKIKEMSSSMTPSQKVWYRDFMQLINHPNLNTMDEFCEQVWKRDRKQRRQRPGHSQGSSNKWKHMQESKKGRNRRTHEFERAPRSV
Test: Ligand pull-down with lysates of adult mouse visual cortex, western blot for Sema-3A
Format: binding
Conditions: ligand pre-incubated with 50 nmol peptide
Protocol: Visual cortex of adult mice were dissected and lysed in homogenization buffer (0.32 M sucrose, 5 mM HEPES, 10 mM MgCl2 and protease inhibitors). Samples were centrifuged (8 min, 1700 g) at 4° C. and the supernatant was incubated 2 hours at 37° C. with 5 nmol of GAG mimics. For the competition assay, ligands were pre-incubated 30 min with 50 nmol of RK-, AA- or SC-peptide at 37° C. prior to incubation overnight at 4° C. with streptavidin-coupled Dynabeads (Life technologies). The loaded beads were washed with homogenization buffer and heated 10 min at 95° C. in Laemmli buffer (with DTT) to detach proteins for western blot analysis.
Immunoprecipitated proteins were separated on NuPAGE 4-12% Bis-Tris pre-cast gels (Invitrogen) for 1 h at 200 V and transferred onto a methanol-activated PVDF membrane at 400 mA for 1 h. Membranes were blocked with 5% non-fat dry milk for 1 h before incubation with primary antibody anti-Sema3A (rabbit, 1/1000, Millipore) overnight at 4° C. […] Membranes were digitized with an LAS-4000 (Fujifilm) and quantified by densitometry with ImageJ.
To measure the in vivo activity and specificity of biotinylated GAG mimics, we performed biochemical and immunohistochemical analyses. […] We first focused on Sema-3A, as cortical Otx2 levels are too low to be reliably detected biochemically.

Sequence: RKQRRERTTFTRAQL [RKpep]
- disruption of Sema-3A interaction with (EC′AC′)6 by competing peptide: specifically disrupts Sema-3A interaction
